Assay results reported in patent publication US20200131274A1 (CRESCENDO BIOLOGICS, published 2020).
Numbering of substitutions follows the chain as printed.

B1: single VH domain antibody 13.1 (VHH)
VHH: EVQLVESGGGSVQPGGSLRLSCAASGFTFSDYWMTWVRQVPGKGLEWVANIKQDGSEKYYVDSVKGRFTISRDNAKNSLYLQMNSLRAEDTAVYYCARDRGGAVALYHNGMDMGGQGTTVTVSS
notes: Human single VH domain antibody (Humabody); purified via the C-terminal His-tag, residues not tied
B2: single VH domain antibody 4.1 (VHH)
VHH: QVQLVESGGGVVQPGRSLRLSCVASGFPFISYGMHWVRQAPGKGREWVAVISYDGSNRYYADSVKGRFTISRDNSKNTLYLQMNSLRPEDTAVYYCAKERIFGVLTPDDFDIWGQGTTVTVSS
notes: as for B1
B3: HiPEG A-2-B-His6 val-cit-PAB-MMAE (bispecific antibody)
chain: EVQLVESGGGVVQPGRSLRLSCAASGFSFSGYGMHWVRQAPGKGLEWVAYISYDGSNKYYADSVKGRFTISRDNSKNTLYLQMNSLRAEDTAVYYCAKDPAWGLRLGESSSYDFDIWGQGTMVTVSSGGGGSGGGGSGGGGSGGGGSGGGGSGGGGSEVQLLESGGGLVQPGGSLRLSCAASGFSFSSYAMSWVRQAPGKGLEWVSSIGENDGTTDYADSVKGRFTISRDNSKSMLYLQMNSLRVEDTAVYYCVKDGVHWGQGTLVTVSSAAAHHHHHH
modifications: HiPEG val-cit-PAB-MMAE attached via the C-terminal His6-tag, DAR 1
B4: single VH domain antibody 11.1 (VHH)
VHH: EVQLVESGGGLVKPGGSLRLSCAASGFNLISYGMYWVRQAPGKGLEWVAVISYDGSNKNYADSVKGRFTISRDNSKNTLFLQMNSLRVEDTAVYYCAKGGNALYSSGWPDDGFDIRGQGTMVTVSS
notes: as for B1
B5: HiPEG C-His6 val-cit-PAB-MMAE (VHH)
VHH: EVQLVESGGGVVQPGRSLRLSCAASGFPLISYGMHWVRQAPGKGLEWVAFMTYDGSNRYYADSVKGRFTISRDNSKNTLYLQMNSLRDEDTALYYCARDRIVGGRVPDAFDIWGQGTMVTVSS
modifications: HiPEG val-cit-PAB-MMAE attached via the C-terminal His6-tag, DAR 1
B6: HiPEG B-1-A-His6 val-cit-PAB-MMAE (bispecific antibody)
chain: EVQLLESGGGLVQPGGSLRLSCAASGFSFSSYAMSWVRQAPGKGLEWVSSIGENDGTTDYADSVKGRFTISRDNSKSMLYLQMNSLRVEDTAVYYCVKDGVHWGQGTLVTVSSGGGGSGGGGSEVQLVESGGGVVQPGRSLRLSCAASGFSFSGYGMHWVRQAPGKGLEWVAYISYDGSNKYYADSVKGRFTISRDNSKNTLYLQMNSLRAEDTAVYYCAKDPAWGLRLGESSSYDFDIWGQGTMVTVSS
modifications: HiPEG val-cit-PAB-MMAE attached via the C-terminal His6-tag, DAR 1
B7: single VH domain antibody 10.1 (VHH)
VHH: QVQLVESGGGLVQPGGSLRLSCAASGFTFSSYGMHWVRQAPGKGLEWVAFMSYDGSNKYYVDSVKGRFTISRDNSKNTLYLQMNSLRAEDTAVYYCAKGDYDFWSGYPDYDMDVWGQGTTVTVSS
notes: as for B1
B8: 1.1-6GS-2.1 (bispecific antibody)
chain: EVQLLESGGGLVQPGGSLRLSCAASGFSFSSYAMSWVRQAPGKGLEWVSSIGENDGTTDYADSVKGRFTISRDNSKSMLYLQMNSLRVEDTAVYYCVKDGVHWGQGTLVTVSSGGGGSGGGGSGGGGSGGGGSGGGGSGGGGSEVQLVESGGGVVQPGRSLRLSCAASGFSFSGYGMHWVRQAPGKGLEWVAYISYDGSNKYYADSVKGRFTISRDNSKNTLYLQMNSLRAEDTAVYYCAKDPAWGLRLGESSSYDFDIWGQGTMVTVSS
B9: 1.18-6GS-2.15 (bispecific antibody)
chain: B8 chain with M34L, D55N, G56A, D62A, S77N, M78T, M177L, G198K, S206K
B10: 1.1-6GS-2.17 (bispecific antibody)
chain: B8 chain with G198A, S206N
B11: 1.11-6GS-2.15 (bispecific antibody)
chain: B8 chain with M34L, D55N, G56D, S63N, S77N, M78T, M177L, G198K, S206K
B12: 1.1-6GS-2.15 (bispecific antibody)
chain: B8 chain with M177L, G198K, S206K
B13: 1.16-6GS-2.15 (bispecific antibody)
chain: B8 chain with M34L, D55N, G56H, S63T, S77N, M78T, M177L, G198K, S206K
B14: 1.1-6GS-2.22 (bispecific antibody)
chain: B8 chain with M177T, D205A, S206P, P243A
B15: HiPEG C-2-C-His6 val-cit-PAB-MMAE (VHH)
chain: EVQLVESGGGVVQPGRSLRLSCAASGFPLISYGMHWVRQAPGKGLEWVAFMTYDGSNRYYADSVKGRFTISRDNSKNTLYLQMNSLRDEDTALYYCARDRIVGGRVPDAFDIWGQGTMVTVSSGGGGSGGGGSGGGGSGGGGSGGGGSGGGGSEVQLVESGGGVVQPGRSLRLSCAASGFPLISYGMHWVRQAPGKGLEWVAFMTYDGSNRYYADSVKGRFTISRDNSKNTLYLQMNSLRDEDTALYYCARDRIVGGRVPDAFDIWGQGTMVTVSS
modifications: HiPEG val-cit-PAB-MMAE attached via the C-terminal His6-tag, DAR 1
B16: single VH domain antibody 6.1 (VHH)
VHH: QVQLQESGPGLVKPSQTLSLTCTVSGGSISNSGYYWSWVRQHPGKDLEWIGFIYYNGSIHYNPSLKSRVIISVDTSKNQFSLKMNSVTAADTAVYYCARDGDDYGDYLRGQGTLVTVSS
notes: as for B1
B17: HiPEG A-1-B-His6 val-cit-PAB-MMAE (bispecific antibody)
chain: EVQLVESGGGVVQPGRSLRLSCAASGFSFSGYGMHWVRQAPGKGLEWVAYISYDGSNKYYADSVKGRFTISRDNSKNTLYLQMNSLRAEDTAVYYCAKDPAWGLRLGESSSYDFDIWGQGTMVTVSSGGGGSGGGGSEVQLLESGGGLVQPGGSLRLSCAASGFSFSSYAMSWVRQAPGKGLEWVSSIGENDGTTDYADSVKGRFTISRDNSKSMLYLQMNSLRVEDTAVYYCVKDGVHWGQGTLVTVSS
modifications: HiPEG val-cit-PAB-MMAE attached via the C-terminal His6-tag, DAR 1
B18: single VH domain antibody 12.1 (VHH)
VHH: QVQLVESGGGVVQPGRSLRLSCAASGFTFSNFGMHWARQAPGKGLEWVAVISYDGNSKYYADTVKGRFTISRDNSKNTLYLEMNSLRADDTAVYYCAKGLWPPMDVRGQGTTVTVSS
notes: as for B1
B19: HiPEG B-2-B-His6 val-cit-PAB-MMAE (VHH)
chain: EVQLLESGGGLVQPGGSLRLSCAASGFSFSSYAMSWVRQAPGKGLEWVSSIGENDGTTDYADSVKGRFTISRDNSKSMLYLQMNSLRVEDTAVYYCVKDGVHWGQGTLVTVSSGGGGSGGGGSGGGGSGGGGSGGGGSGGGGSEVQLLESGGGLVQPGGSLRLSCAASGFSFSSYAMSWVRQAPGKGLEWVSSIGENDGTTDYADSVKGRFTISRDNSKSMLYLQMNSLRVEDTAVYYCVKDGVHWGQGTLVTVSS
modifications: HiPEG val-cit-PAB-MMAE attached via the C-terminal His6-tag, DAR 0.7
B20: HiPEG A-2-A-His6 val-cit-PAB-MMAE (VHH)
chain: EVQLVESGGGVVQPGRSLRLSCAASGFSFSGYGMHWVRQAPGKGLEWVAYISYDGSNKYYADSVKGRFTISRDNSKNTLYLQMNSLRAEDTAVYYCAKDPAWGLRLGESSSYDFDIWGQGTMVTVSSGGGGSGGGGSGGGGSGGGGSGGGGSGGGGSEVQLVESGGGVVQPGRSLRLSCAASGFSFSGYGMHWVRQAPGKGLEWVAYISYDGSNKYYADSVKGRFTISRDNSKNTLYLQMNSLRAEDTAVYYCAKDPAWGLRLGESSSYDFDIWGQGTMVTVSSAAAHHHHHH
modifications: HiPEG val-cit-PAB-MMAE attached via the C-terminal His6-tag, DAR 1
B21: HiPEG A-His6 val-cit-PAB-MMAE (VHH)
VHH: EVQLVESGGGVVQPGRSLRLSCAASGFSFSGYGMHWVRQAPGKGLEWVAYISYDGSNKYYADSVKGRFTISRDNSKNTLYLQMNSLRAEDTAVYYCAKDPAWGLRLGESSSYDFDIWGQGTMVTVSS
modifications: HiPEG val-cit-PAB-MMAE attached via the C-terminal His6-tag, DAR 1
B22: single VH domain antibody 14.1 (VHH)
VHH: EVQLVESGGEVKKPGASVKVSCKASGYTFTSYDINWVRQATGQGLEWMGWMNPNSGNTGYAQKFQGRVTMTRNTSISTAYMELSSLRSEDTAVYYCARGNGPGITGTTDYWGQGTLVTVSS

Legend:
[1] = biological target: T1, recombinant human PSMA (R&D, cat. no. 4234-ZN) (human, UniProt Q04609 44-750); test: Octet RED384 BLI, PSMA on sensor, VH purified from periplasmic extracts
T1 construct: Bought protein; also called rhPSMA; Recombinant PMSA

[2] = biological target: T2, human prostate specific membrane antigen (PSMA), full-length, on cells (human, UniProt Q04609 1-750); test: cell-based or functional assay
[3] = biological target: T2, human prostate specific membrane …; test: cell-based or functional assay; remark: listed apart in the source
[4] = biological target: cynomolgus PSMA, full-length, on CHO cells (cynomolgus, UniProt A0A2K5VNZ0 1-750); test: cell-based or functional assay

T2 sequence (Q04609 whole entry): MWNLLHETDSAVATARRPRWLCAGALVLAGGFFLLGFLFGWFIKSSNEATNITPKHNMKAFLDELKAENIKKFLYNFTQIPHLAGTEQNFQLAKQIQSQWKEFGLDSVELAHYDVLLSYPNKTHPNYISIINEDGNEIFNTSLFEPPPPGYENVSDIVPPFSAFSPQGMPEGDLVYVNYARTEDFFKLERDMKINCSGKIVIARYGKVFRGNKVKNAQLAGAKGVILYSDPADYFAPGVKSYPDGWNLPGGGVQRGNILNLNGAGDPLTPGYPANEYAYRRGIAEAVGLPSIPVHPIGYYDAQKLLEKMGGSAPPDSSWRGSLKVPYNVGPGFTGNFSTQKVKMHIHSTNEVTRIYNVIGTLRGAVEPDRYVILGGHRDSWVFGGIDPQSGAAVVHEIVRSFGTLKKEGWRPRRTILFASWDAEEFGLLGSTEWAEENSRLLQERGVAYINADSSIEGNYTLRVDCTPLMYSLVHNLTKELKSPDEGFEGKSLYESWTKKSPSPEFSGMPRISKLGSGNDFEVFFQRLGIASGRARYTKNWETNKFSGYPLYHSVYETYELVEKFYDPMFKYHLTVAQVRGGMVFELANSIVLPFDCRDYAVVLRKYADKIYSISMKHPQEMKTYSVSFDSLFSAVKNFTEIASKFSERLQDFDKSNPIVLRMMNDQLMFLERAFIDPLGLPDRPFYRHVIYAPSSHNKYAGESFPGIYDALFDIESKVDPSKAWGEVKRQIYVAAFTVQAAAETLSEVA
T1 sequence (Q04609 44-750 limits assumed): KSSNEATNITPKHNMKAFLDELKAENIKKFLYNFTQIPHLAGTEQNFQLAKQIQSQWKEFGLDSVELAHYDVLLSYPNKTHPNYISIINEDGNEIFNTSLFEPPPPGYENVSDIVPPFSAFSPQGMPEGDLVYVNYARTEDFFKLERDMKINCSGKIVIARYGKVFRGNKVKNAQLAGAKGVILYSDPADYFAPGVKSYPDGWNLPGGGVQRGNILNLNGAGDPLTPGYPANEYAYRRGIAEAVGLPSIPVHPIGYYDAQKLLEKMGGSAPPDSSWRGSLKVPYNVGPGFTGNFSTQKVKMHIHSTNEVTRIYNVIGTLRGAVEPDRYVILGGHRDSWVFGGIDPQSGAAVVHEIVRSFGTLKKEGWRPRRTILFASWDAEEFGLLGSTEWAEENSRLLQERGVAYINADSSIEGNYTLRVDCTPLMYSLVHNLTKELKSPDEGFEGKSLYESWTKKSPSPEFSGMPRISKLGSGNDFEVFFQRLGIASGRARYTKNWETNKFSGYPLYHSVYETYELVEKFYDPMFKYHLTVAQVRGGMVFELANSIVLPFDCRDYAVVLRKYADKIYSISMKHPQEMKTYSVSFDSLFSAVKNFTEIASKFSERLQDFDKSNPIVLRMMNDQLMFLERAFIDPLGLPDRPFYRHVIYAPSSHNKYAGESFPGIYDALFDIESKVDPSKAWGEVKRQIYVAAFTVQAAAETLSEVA

| Binder | Kd [1] | koff [1] | IC50 Toxin (nM), DU145 PSMA cells, 48 h [2] | Mean IC50, cytotoxicity on DU145 PSMA cells, 48 h [2] | Mean Max % Cell kill, DU145 PSMA cells, 48 h [2] | His-ZAP cell killing, cyno PSMA Average EC50 [4] | further results |
| --- | --- | --- | --- | --- | --- | --- | --- |
| B1 | 4.2 nM | 0.0006 s⁻¹ | – | – | – | – | – |
| B2 | 45 nM | 0.014 s⁻¹ | – | – | – | – | – |
| B3 | – | – | 0.37 nM | 0.37 nM | 78% | – | IC50 (nM), cytotoxicity on DU145 PSMA cells, 72 h [3]: 0.29 nM; IC50 (toxin) nM, DU145 PSMA cells, 72 h [3]: 0.29 nM |
| B4 | 26 nM | 0.00149 s⁻¹ | – | – | – | – | – |
| B5 | – | – | 5.21 nM | 5.2 nM | 59% | – | – |
| B6 | – | – | 0.13 nM | 0.13 nM | 79% | – | IC50 (nM), cytotoxicity on DU145 PSMA cells, 72 h [3]: 0.1 nM; IC50 (toxin) nM, DU145 PSMA cells, 72 h [3]: 0.1 nM |
| B7 | 95 nM | 0.00185 s⁻¹ | – | – | – | – | – |
| B8 | – | – | – | – | – | 12 pM | – |
| B9 | – | – | – | – | – | 10 pM | – |
| B10 | – | – | – | – | – | 11 pM | – |
| B11 | – | – | – | – | – | 9 pM | – |
| B12 | – | – | – | – | – | 8.6 pM | – |
| B13 | – | – | – | – | – | 11 pM | – |
| B14 | – | – | – | – | – | 7.8 pM | – |
| B15 | – | – | 4.54 nM | 4.5 nM | 69% | – | – |
| B16 | 16 nM | 0.00365 s⁻¹ | – | – | – | – | – |
| B17 | – | – | 0.67 nM | 0.67 nM | 75% | – | – |
| B18 | 3.9 nM | 0.00137 s⁻¹ | – | – | – | – | – |
| B19 | – | – | 12.6 nM | 18 nM | – | – | IC50 (nM), cytotoxicity on DU145 PSMA cells, 72 h [3]: 21 nM; IC50 (toxin) nM, DU145 PSMA cells, 72 h [3]: 14.7 nM |
| B20 | – | – | 0.32 nM | 0.32 nM | 57% | – | IC50 (nM), cytotoxicity on DU145 PSMA cells, 72 h [3]: 0.19 nM; IC50 (toxin) nM, DU145 PSMA cells, 72 h [3]: 0.19 nM |
| B21 | – | – | 1.16 nM | 1.2 nM | 74% | – | IC50 (nM), cytotoxicity on DU145 PSMA cells, 72 h [3]: 0.55 nM; IC50 (toxin) nM, DU145 PSMA cells, 72 h [3]: 0.55 nM |
| B22 | 17 nM | 0.0011 s⁻¹ | – | – | – | – | – |
